According to paper PMC4694137:

What was measured:
[1] = molecular target: AgaR1 (SSU05_0448) protein from Streptococcus suis (Streptococcus suis); assay: cross-linking; purified protein (~5 mg/mL) in 15 uL incubated with EGS cross-linker (0, 2.5, 5, 10, 20 umol/L for AgaR2; 0.1, 0.2, 0.5, 1.0, 2.5, 5, 10, 20 umol/L for AgaR1) for 1 h at room temperature; 12% SDS-PAGE, Coomassie staining
[2] = molecular target: AgaR2 (SSU05_0447) protein from Streptococcus suis (Streptococcus suis); assay: as above

Substance	stoichiometry N [1]	stoichiometry N [2]
AgaR1 (SSU05_0448) protein from Streptococcus suis (natural protein)	2	–
AgaR2 (SSU05_0447) protein from Streptococcus suis (natural protein)	–	2
